# Data taken from a protein production outcome set (Wang et al. 2014).
# Experiment: label from the status in PepcDB records
row,Sequence,protein production
1,MKLAIIIPVYNAEETIKRAILSVDTSVPYEIICINDGSTDQTQHVLTELQQKHPHIKVIHQSNQGAARSRNVGLEAMSEDVDAFLFLDADDEFLPSRIDLMVNAFNKNKETDVVIGQMARDVNGEWQVISTHQSMVKDAIVTLDRKPDILQSIGPGAKLFSSKYAGLRFDEDVVFCEEHTFIVKAFSKARDIQLIPNIVYGYNEREGSVTAQRADTFLPYMSDALKVRQRVMELLLLLDEKIYYSYRMDNLIVSYLIQAHLKKNNKITQSLLESVIEYMKAMQHTHYSGEAMFRIVRAVEQSATHWTKPLYLQWKKALSEVGIGRPGLIRFKLQVIPKKISFSGKESLKRIFKK,failed
2,MLQSKVFKYSRWDIACCLVIPFQISVYALLAYYYQSMSLLALLGMIPVLFALSLQNAGANHNHYHTPFFRIRWMNTLTRMGFSATEAPKTPYNIGHGIHHATHQSWNDKSILAVLGLKRSIAQQLISFGLFIFESLGVKYFTLLVLLKYWPIERVAVLASPEDPVLAARALKKLLEPAKLKAAKYDLAAWFLFRLVLCVVDWQFFFFYFIPVTYLIDTLRQGENYFQHWGATDPNDPKRDSVSCYSTLYNLLTFNLGYHQEHHYKPGLHWLKLPELTKELPSDRHTVPYSHYLNSPLMFPERASQLRKENVADVSP,failed
3,LELLEALSLPVWIFDIDHRRVFWANEAALQVWGAGSLLELQTRDMARDMSVSVAQRLAQYQQDFEREGASFVESWTLYPNGRPSVLKVKFRGIRVNGRMLMFCEAQN,failed
4,MSALRILARFVSTRTLRIRPILEIPARCKYTQHQGVKGIRNRKSFFEAQIQAGQQGEEDADLERTANSDLADMRFLDDRAYDEVAGGAMRITRDIASSQQVLILQPYVKWAAKRQNAPVDVRPEDQLAEATALIHSLPNWQVARALKVPLESLEKKTLFGSGKLVELKELVAELRQERHLTCLFVSKGTLSFAQKRFLEAEFRLPVMDRYSVVIQILRLHATSAEAKLQVAMAELPYIWAQAKDASVTQTRRQGYALTDLQKEILRTRERKLRAELDRVRRQRQLLRQKRKQQNYPIVAVVGYTNAGKTSLIKALTVEDALQPRNQLFATLDVTAHAGCLPCNLEVIYMDTVGFMSDLPTGLFECFVATLEDAMLADVIVHVQDLSHPCHAAQRSHVEATLRSLAFNVAGGDSTASQLPPIINVYNKCDLVSQEAQSSADPVHHISARAQTGLEPLLDDIEQQILTATGRRKLQMRVPSGGPEMAWLYKNAAVVETTADAENPERLMMHVVISQRTLDQFKRQFCR,failed
5,MSLRDFGLLVLICLIWAGSNIISKLVVAHWGVPPLYYAAVRFALVAALTLPWLLPAPRPTWRMVLVGLLMGGGNFALLFMGFQTASPSAASVVIQVGVPFTTLLSVLILGEKIRWRRGLGIALTLLGAVVVMWSPKGIELSAGLWLIVAAAFTGSLGAVMMKQIEGVKPLQFQAWVGFSSVWPLAAMSAFMEPGQVAAGFAAGWPFVAAVVFSAVVVSILAHTAYYGLIQRYEANLIAPLTLMTPLFTIGMGVVVTNDHFDLRMGIGAALALLGVLIIALRRNQVMPLLTSLRSRLQ,failed
6,MISNEHINTQNFWYQLVEKMAIGVLVINNEGQILYANDYAVQLFGAIRTELIGTNFLYPMAADETQEVEILKSSNEILTAHMTVRKSIWENRQVWIISLFDIT,failed
7,MHSREYPFMLASMMFDFACLQISSLWERLLGAIGDAAGNALGRVVEAIRTLFEGDPETRRKVSFSVAIIALSAKMAKADGVVNDAEVRAFRQIFDFPDEEAKNVARLYNLARQDVAGYEAYAERLAGLCGSGHANCEMLESVIDGLFHIAKADGLIHERELAFLGRIAEIFRITEDHFETIMARHVHMDGRDPYRVLGVSPSDDFLDIRKRYRSLVAEHHPDKLIARGVPMELHAAANERMAALNAAYAAIEKERRVA,failed
8,MADIKRIALLSGGGDCPGLNAVIRAVTKAAINEYGYEVIGYVYGYRGLYNNDYIELTVDKVENIYKEGGTILYSSNKDNLFDYLVDDGHGGKVKKDVSDVGVENLKKAGVDVLVVLGGDGTLTSARDFARKGVNVIGIPKTMDNDLPATDLTYGFISASSVGTEFIDRLNTTAKSHHRVICCELMGRDAGWIALYAGMAGNASCILIPEIPFTIDSIVRHVEKRDKEGYPYTVIAVAEGAKYADGTKVIGKIVEDSPDPIRLGGIASKVADDLEKVIKNHEVRSVNPGHIIRGGDIQAYDRILSIRFGVKAVELIHEGKFGNVVTLKGEEMSYTSLEEVIGDAKFGKQKHVDPNGELVRAAKSIGICFGDD,failed
9,MADKIKVSLLGSTGMVGQKMVKMLAKHPYLELVKVSASPSKIGKKYKDAVKWIEQGDIPEEVQDLPIVSTNYEDHKDVDVVLSALPNELAESIELELVKNGKIVVSNASPFRMDPDVPLINPEINWEHLELLKFQKERKGWKGILVKNPNCTAAIMSMPIKPLIEIATKSKIIITTLQAVSGAGYNGISFMAIEGNIIPYIKGEEDKIAKELTKLNGKLENNQIIPANLDSTVTSIRVPTRVGHMGVINIVTNERINIEEIKKTLKNFKSLPQQKNLPTAPKQPIIVRDEEDRPQPIIDVNAESGMAVTVGRIRHENNVLRLVVLGDNLVRGAAGITILTVEVMKELGYI,not failed
10,MTATIPPLTPTVTPSNPDRPIADLKLQDIIKTLPKECFEKKASKAWASVLITLGAIAVGYLGIIYLPWYCLPITWIWTGTALTGAFVVGHDCGHRSFAKKRWVNDLVGHIAFAPLIYPFHSWRLLHDHHHLHTNKIEVDNAWDPWSVEAFQASPAIVRLFYRAIRGPFWWTGSIFHWSLMHFKLSNFAQRDRNKVKLSIAVVFLFAAIAFPALIITTGVWGFVKFWLMPWLVYHFWMSTFTIVHHTIPEIRFRPAADWSAAEAQLNGTVHCDYPRWVEVLCHDINVHIPHHLSVAIPSYNLRLAHGSLKENWGPFLYERTFNWQLMQQISGQCHLYDPEHGYRTFGSLKKV,failed
11,MTRAKDRLSAVQVKQSPAGKYADGGGLWLVKSSKDTGKWVLRAVVHGRRREMGLGSVSDVGLAEARKSADKWRTVVRAGGDPIKERARQKREAARNLHLLKHVAEDCFDAIKGNLRGQGKAGRWFSPLELHVLPKLGKVPVADLDQVDIRDTLKPLRDTKFETMRKALNRLDMVVRHAAALGLDVDTQVVDKAKALIGASQHKAVNIPAMPWHEVPGFYQSLSVGSVTHLALRLLILTGVRSRPLRFLRVDHIAGDVWTIPADMMKGREGATGDFRVPLSKEALAVIEQAKRHARDGFLFPSLRRGVVSDMTLSRYMERRKLTARPHGFRSSLRDWLAECTDAPHEVAETVLGHKVGGAVERAYRRTDFIDQRAKLMERWADHCKVVQLVSAV,failed
12,MGWHCVFFQMDLRYCSVQTLARTHQVMRELVQASAFVELNRFFDRLEAQWRQAPPGEFPAYLAAIDGHMLLDQENQGDRALSQVLRAWIDACPRAYHPQVVMGMHCFHRACQVQVDGPRNAARLLAVAQICESATAHLLRAMDRSAHPVAAAIGMLRISAQFHEPGWLLQLFQGEPARFRPSAHADVEVQEAAAPLLVRHGLLPLAELPQSLPRYLGKRVDHENEDPRYYWLRHALIARPGCFEAIQALAVYLLPRWGGSLDAFELLVNGPLCATWDERLRNALRWMAVEGRLKLPQADKVQAVADWQHVFEDWSQRPLRPRERAVVLAWRGALRSRVSGDHAGAMRDFGASLACNADLGAIRAMGVPFRCLAELILRDGMADEKQLLHGAIERLCDGRSHAAACALRAVGHRFGLWALPRSAEQARLWLQRAVSRQCAGQAPGFEVLEVARLLWAANRHEVACYLYERCAELNLPGAALALYELHHGGLANTPAHYLDDEAAGYWLQRAVEAGSRQAKYNLACLRMDGDEDLNERSAMLAVRRLLVDALGNGQTNACARLHLGILLRRFGEAQERSEAVAYLLSLVEHPDPWLAGRASAELGLAWMQGRGTRKQSRFAAIQWVNRAASLQPRDSAIGDIQAQILNSHSRVKTLFTQCGAALFRGTLHASELPPKQAFTHAESLRVKPASDGLRRAHKPRLSGPMQG,failed
13,MVDYKTVRCHFGDVELTKWITITDGFTVFSGADYDPELKEIGGKDGSIFIGTKTKHKVIKVPFWVKYNTIEDYDALQLALSSKKPKMLMFSHIPGRYYLAVQVGDLNFKEIKMNGFGEITFIVADAYAHSTSYRRIKDYTQDGNKMTFKIKNNGTAPAFPIFRIKHLGENGYIGITNETGAFAVGSPEEEDGTIVHRNETLFDYSKAIAQALEGAPNVAKLNYMPPTFDSELKRMRLDNILGSGKGGEYVAIGARGTTPGYGEHVGTRTFIINPDSNGEYTLNEHLWWKQIFIATAQDQKGFLKLCVTGENDEFLYGIETYKRKNGFETEYNFFALDDDGVGWRFYKQFEFQADRNYHNPFSMNRSRAVEIFREEDKFRIYFNGAHHHVTVPSLKGKKSRKIHLAMGTCSDSSKYINYNLFEKVNFEKMGVSHYNNIVNKYQPGDEVIINFENDTVSTKDIDSIQDVVLGSKMISIPPGESELVVHLSSWVAALPDISIDFEERYK,failed
14,GDGEEYTFWDPEYAGLQNGLKAVLPNAHNYITQFSANERRYIVYSTSSTQPGTYYFGDRDEKVLFPIAERYSQLSTEQLADTQYLSYEARDKLKIDAYLTVPKGFKAKHLPTIIFPHGGPISYDSNDFDYWAQFFANRGYAVFRMNFRGSAGYGYEFMKAGLKSWGLEMQNDVEDGTRYLINQGISDPQRICIVGASYGGYAALMGAAMTPDLYRCAVSVAGVTDVANLVRSSRRFTNYEVVKEQIGDDFNVLYERSPISKADKITIPVLLLHGDKDRVVKVQHSREMFDELKSRKKNVEYIELENGGHYLSNNDHRLTTFKALDKFLADNLK,failed
15,SQYKNISEKIVHIIQQEFDTDLTLESIAGRLHYNPNYLSSIFRKEMKISFSEYLSSYRHHIAKNWLTETTMSVKEISEKLKYKNPQNFIRSFKKLEGITPGKYRELKNHS,not failed
16,MQRYETTSVQNITQQYVHWFRHSAPYINAHRNKTLVLMFGGEAVQHPNFQHIIHDIALLHSLGIRLILVHGARPQINQNLQEKQIETPIHLHRRVTTRESLACVMNAVGSIRLEIEALLSMGLANSPMFGARIDVVSGNFVTAKPYGIRDGVDFQLTGEVRAIDTDAIQRHLDNHNIVVLGPTGYSTTGEVFNLLAEEVATKTATALHADKLIFLGKKQGLLSDQGKLLRELTPQQLEPYIKHFQQLDHEMALHLQGAQTASLSGVHRVHLISYAYDGALIEELFTRDGIGTMITDAHYEDVRTATIQDVGGLINLLRPLEEEGILVYRSRERLESEISQFAVIERDGMILACAALYPIPTAKNEIRSAEIACVAVDPAYRKSNRGSQILHFLEEKARQEGILQLFVLTTRTAHWFLEHGFQTASVDDLPSARQELYNYQRNSLVFKKILM,failed
17,MAEVLVYVDHVDGAVRKPTLELLTLARRIGEPVALALGSGAENTAAALAEHGAGKVLTHDAAEYADYLVVPKVDALQAAYEAVSPAAVLIPSSAEGKEIAARLAVRIGSGIITDAVDLEAGDEGPVATQSAFAASFTTKSRVSKGTPVITVKPNSAPVEAAPAAGAVEALSVSFSDKATGTKVTGRTPRESTGRPELTEAAIVVSGGRGVNGAENFAIIEALADSLGAAVGASRAAVDAGWYPHSNQVGQTGKAVSPQLYIASGISGAIQHRAGMQTSKTIVAINKDAEAPIFDLVDYGVVGDLFDVVPQLTDEVKTRKG,failed
18,MSEEFDESEIIFSDNYFPIRRREDGNEKENNRPVDFRENSERVWNKSSRRSKTTPLPSAVTAFSSSLPVNIPMRRYSTEEEYSDDDGGRKMIPPHLIVGRRMEGGQMAFSVCTGNGRTLKGRDLSRVRNSVLKLTGFLEA,failed
19,MAVTLRLTNSLAFSSHPLTSSVLFRGSKSIGTITKIASTIRTVKMAAFAGSDSETTSSTSRVIDSHLHIWASPQEAETYPYFPGQEPTLTGDVNFLLKNMEEARVDGALIVQPINHKFDHSLVTRSRPF,failed
20,PVAGPYITFTDAVNETTIMLKWMYIPASNNNTPIHGFYIYYRPTDSDNDSDYKKDMVEGDRYWHSISHLQPETSYDIKMQCFNEGGESEFSNVMICETKAR,not failed
